Values quoted from earlier work as cited in publication PMC4379523.

Target: ribosomal protein L3 N-terminal peptide (L3Δ21) 1-21 (Saccharomyces cerevisiae) (UniProt P14126)
Experiment: SPR

Chain of UniProt P14126 (P14126 1-21, stated change not applied): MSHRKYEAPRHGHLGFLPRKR

For “Pokeweed antiviral protein (PAP) (from UniProt P10297)”, which Kd is on record?
Its Kd is 24.8 nM.
